Laboratory results reported in IntAct's records for PubMed 31585087.

B1: GRB2-associated-binding protein 1 (Homo sapiens), Q13480 (parent)
chain: MSGGEVVCSGWLRKSPPEKKLKRYAWKRRWFVLRSGRLTGDPDVLEYYKNDHAKKPIRIIDLNLCQQVDAGLTFNKKEFENSYIFDINTIDRIFYLVADSEEEMNKWVRCICDICGFNPTEEDPVKPPGSSLQAPADLPLAINTAPPSTQADSSSATLPPPYQLINVPPHLETLGIQEDPQDYLLLINCQSKKPEPTRTHADSAKSTSSETDCNDNVPSHKNPASSQSKHGMNGFFQQQMIYDSPPSRAPSASVDSSLYNLPRSYSHDVLPKVSPSSTEADGELYVFNTPSGTSSVETQMRHVSISYDIPPTPGNTYQIPRTFPEGTLGQTSKLDTIPDIPPPRPPKPHPAHDRSPVETCSIPRTASDTDSSYCIPTAGMSPSRSNTISTVDLNKLRKDASSQDCYDIPRAFPSDRSSSLEGFHNHFKVKNVLTVGSVSSEELDENYVPMNPNSPPRQHSSSFTEPIQEANYVPMTPGTFDFSSFGMQVPPPAHMGFRSSPKTPPRRPVPVADCEPPPVDRNLKPDRKVKPAPLEIKPLPEWEELQAPVRSPITRSFARDSSRFPMSPRPDSVHSTTSSSDSHDSEENYVPMNPNLSSEDPNLFGSNSLDGGSSPMIKPKGDKQVEYLDLDLDSGKSTPPRKQKSSGSGSSVADERVDYVVVDQQKTLALKSTREAWTDGRQSTESETPAKSVK
partner: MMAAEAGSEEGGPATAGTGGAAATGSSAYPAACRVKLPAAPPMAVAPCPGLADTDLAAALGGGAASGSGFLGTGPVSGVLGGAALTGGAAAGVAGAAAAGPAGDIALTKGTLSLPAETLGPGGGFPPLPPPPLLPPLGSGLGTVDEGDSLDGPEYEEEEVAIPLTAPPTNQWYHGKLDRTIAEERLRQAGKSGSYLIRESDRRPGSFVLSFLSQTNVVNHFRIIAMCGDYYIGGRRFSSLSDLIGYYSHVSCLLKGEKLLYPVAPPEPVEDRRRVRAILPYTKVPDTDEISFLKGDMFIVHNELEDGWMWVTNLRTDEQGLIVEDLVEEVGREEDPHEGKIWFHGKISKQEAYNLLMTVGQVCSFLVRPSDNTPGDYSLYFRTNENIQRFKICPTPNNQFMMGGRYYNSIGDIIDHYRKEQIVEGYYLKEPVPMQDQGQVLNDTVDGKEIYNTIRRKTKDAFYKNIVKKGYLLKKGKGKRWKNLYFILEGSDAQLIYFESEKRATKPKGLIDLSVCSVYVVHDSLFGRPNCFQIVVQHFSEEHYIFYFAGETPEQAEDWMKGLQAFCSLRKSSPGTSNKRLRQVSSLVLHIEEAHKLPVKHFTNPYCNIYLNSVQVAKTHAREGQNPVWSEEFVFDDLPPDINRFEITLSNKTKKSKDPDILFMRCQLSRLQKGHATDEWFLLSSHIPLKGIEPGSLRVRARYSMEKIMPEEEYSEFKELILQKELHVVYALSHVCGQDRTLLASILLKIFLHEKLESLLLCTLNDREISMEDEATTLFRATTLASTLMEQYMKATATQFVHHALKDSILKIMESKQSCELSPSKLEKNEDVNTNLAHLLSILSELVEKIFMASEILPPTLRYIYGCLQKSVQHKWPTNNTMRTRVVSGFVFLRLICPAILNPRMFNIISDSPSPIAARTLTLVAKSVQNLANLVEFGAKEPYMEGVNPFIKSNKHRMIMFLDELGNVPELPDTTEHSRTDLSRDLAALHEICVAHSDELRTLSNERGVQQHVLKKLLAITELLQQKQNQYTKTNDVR

Variants of: B1
Conditions: with rasa1_rat Rasa1, P50904

Row | Variant | effect of a mutation on the interaction
1 | P320S | disrupting interaction strength
